The values that follow come from patent publication US20240084003A1 (SIMCERE ZAIMING PHARMACEUTICAL, published 2024).

Substitutions are numbered along the chain they refer to.

T1: monkey CD22 protein (ACROBiosystems, catalog number SI2-R52Ha) (monkey, UniProt F6W485 20-688)
T1 construct: commercial protein; also called monkey CD22-ECD; monkey CD22-ECD-His
T1 sequence: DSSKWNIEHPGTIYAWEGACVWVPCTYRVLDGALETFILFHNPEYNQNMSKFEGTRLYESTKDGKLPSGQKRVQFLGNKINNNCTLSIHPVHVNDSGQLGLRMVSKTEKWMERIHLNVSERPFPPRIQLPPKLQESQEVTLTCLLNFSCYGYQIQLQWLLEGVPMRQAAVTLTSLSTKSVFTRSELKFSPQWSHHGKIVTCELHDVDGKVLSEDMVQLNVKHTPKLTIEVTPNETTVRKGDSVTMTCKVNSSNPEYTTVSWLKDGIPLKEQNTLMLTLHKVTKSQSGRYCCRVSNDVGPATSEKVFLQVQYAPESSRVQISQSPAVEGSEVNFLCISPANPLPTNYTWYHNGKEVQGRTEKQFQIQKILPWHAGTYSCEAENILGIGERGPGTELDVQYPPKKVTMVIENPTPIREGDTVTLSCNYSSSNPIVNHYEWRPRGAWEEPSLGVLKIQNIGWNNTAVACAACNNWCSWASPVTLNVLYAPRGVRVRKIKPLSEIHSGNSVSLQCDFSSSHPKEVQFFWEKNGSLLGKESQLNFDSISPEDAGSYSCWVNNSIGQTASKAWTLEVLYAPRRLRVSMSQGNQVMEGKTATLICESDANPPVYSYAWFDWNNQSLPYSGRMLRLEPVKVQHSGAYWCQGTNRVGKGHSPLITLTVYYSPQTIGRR

B1: F1.280.1 (antibody, human IgG1, kappa, V domains shown)
VH: QIQLVQSGPELKKPGETVKISCKASGYTFTTYGMSWVKQTPGKGLTWMGWINTDSGVPTYADDFKRRFAFSLEASATTAYLQINNLKNEDTATYFCARGGPDYWGQGTTLTVSS
VL: DILLTQSPATLSVTPGETVSLSCRASQSIYKNLHWYHQKSHRSPRLLIKYASDSISGIPSRFTGSGSGTNFTLSINSVKPEDEGIYYCLQGYIVPLTFGAGTKLELKR
notes: human-murine chimeric IgG1 kappa
B2: F2.99.1 (antibody, human IgG1, lambda, V domains shown)
VH: QVTLKESGPGILQPSQTLSLTCSFSGFSLSTFPMGVGWIRQPSGKGLEWLAHIWWDDDEYYNPVLKSRLTISKDTSKKQVYLRIANVDTVDTATYYCTRANWDRWYFDVWGTGTTVTVSS
VL: QLVLTQSSSASFSLGASAKLTCTLSRQHSAYTIEWYQQQPLKPPKYVMEVKKDGSHSTGDGIPDRFSGSSSGADRYLSISNIQPEDEAIYICGVGDTIKEHFVFGGGTKVTVLG
notes: human-murine chimeric IgG1 lambda; VL name legible
B3: F2.42.9 (antibody, human IgG1, lambda, V domains shown)
VH: QVTLKESGPGILQPSQTLSLTCSFSGFSLSTFDRGVGWIRQPSGKGLEWLAHIWWNDKKFYNPVLKSRLTISKDTSKNQVFLTIANVDSADTATYSCARIVWDKYYFDYWGQGIPLTVSS
VL: B2 VL with R26S, Y46F, E49D, V50L, D64A, S78T, H101Q, F102Y
notes: as for B2

The target of the first test is T2, CD22 on cynomolgus monkey peripheral blood B cells (cynomolgus monkey (Macaca fascicularis)).
T2 construct: whole, on cells; also called cynomolgus monkey B cells
In words: FACS, cynomolgus PBMC, CD20+ B cells, antibody 1 nM. An excerpt:
(§1) The monkey peripheral blood mononuclear cells were extracted from fresh cynomolgus monkey peripheral blood (purchased from Shanghai Medicilon Inc.) according to the instructions of Ficoll-Paque Plus (purchased from GE Healthcare, catalog number: 171440-02). After the cell suspension was centrifuged, the cells were resuspended in PBS containing 1% BSA, and then the cells were counted. At the same time, the murine antibody Brilliant Violet 605 anti-human CD20 (catalog number: 302334, purchased from Biolegend) with monkey CD20 cross-binding activity and the chimeric antibodies to be tested (1 nM, 10 nM and 100 nM) were added and incubated at room temperature for 1 hour. After washing the cells three times, APC-labeled secondary antibody anti-human IgG Fc (catalog number: 409306, purchased from Biolegend) was added. After incubation at room temperature in the dark for 30 minutes, the cells were washed 5 times, gently resuspended with PBS containing 1% BSA, and detected and analyzed by FACS (FACS Canto™, purchased from BD Company). Wherein CD20 was used as a marker of B cells, and the CD20-positive B cell population was gated, the proportion of chimeric antibody positive cells was analyzed, and the proportion of chimeric antibody positive cell population to B cell population was calculated after treatments with the chimeric antibodies at the concentrations of 100 nM, 10 nM and 1 nM, respectively. The scatter plot of double-stained cells by Brilliant Violet 605-labeled CD20 and APC secondary antibody indirectly labeled chimeric antibody is shown in FIG. 10A-FIG. 10B (under the condition of 1 nM of chimeric antibody concentration).
(In general: In flow cytometry, cells or beads pass a laser one at a time.)
Turning to B1, the “Proportion of chimeric antibody positive cells to B cells (%)” value (“Proportion … (%)” below) was determined as 19%.
Same read-out and setting: the same measure for B2: 19%; for B3: 20%.

For another test, the target named is T1, monkey CD22 protein (ACROBiosystems, …). The test is described as follows: ELISA, coated monkey CD22 protein, antibody 0.0001 nM. On the procedure:
(§2) In order to detect the binding activity of CD22 human-murine chimeric antibodies to CD22 protein, the purified human CD22-ECD-His protein obtained in Example 2 was diluted with PBS to a final concentration of 2 μg/mL, and then added to 96-well ELISA plate at 100 μl/well. The plate was sealed with plastic film and incubated overnight at 4° C., the plate was washed 2 times with PBS the next day, and then a blocking solution [PBS+2% (w/w) BSA] was added for blocking at room temperature for 2 hours. […] After incubation at 37° C. for 2 hours, the plate was washed 3 times with PBS. HRP (horseradish peroxidase)-labeled secondary antibody (purchased from Sigma, catalog number: A0170) was added, and incubated at 37° C. for 2 hours, and the plate was washed 5 times with PBS. TMB substrate was added at 50 μl/well, and incubated at room temperature for 30 minutes, then a stop solution (1.0 N HCl) was added at 50 μl/well.
(§3) In order to detect the species cross-binding activity of the chimeric antibodies, an ELISA plate was coated with commercial murine CD22 protein (ACROBiosystems, catalog number: SI2-M52Ha) and monkey CD22 protein (ACROBiosystems, catalog number: SI2-R52Ha), respectively, and the ELISA detection was performed according to the method in Example 5.1.
A general note: ELISA stands for enzyme-linked immunosorbent assay.
B1 displayed an OD450 of 0.06 OD450.
Molecule B2 had an OD450 of 0.05 OD450.
On to B3, for which the OD450 is 0.07 OD450.

A further test has the same target. In words: ELISA, coated monkey CD22 protein, antibody 0.1 nM. On the procedure: as §2, §3
Regarding B1, the OD450 is 0.06 OD450.
Still for that read-out and setting: in the case of B2 it was 0.27 OD450.
On the same count and under the same terms, the same measure for B3: 0.95 OD450.

The target is the same in a further test. In words: ELISA, coated monkey CD22 protein, antibody 0.001 nM. On the procedure: as §2, §3
B1 came in with an OD450 of 0.06 OD450.
Same read-out and setting: the same measure for B2: 0.05 OD450; for B3: 0.09 OD450.

Another test deals with T2, CD22 on cynomolgus monkey peripheral …. The test is described as follows: FACS, cynomolgus PBMC, CD20+ B cells, antibody 100 nM.
Source text: as §1
For B1, the “Proportion … (%)” value was determined as 35%.
Consider B2, for which the “Proportion … (%)” value came to 22%.
On the same count and under the same terms, the same measure for B3: 23%.

The target of the next test is T1, monkey CD22 protein (ACROBiosystems, …). The test is described as follows: ELISA, coated monkey CD22 protein, antibody 0.01 nM. On the procedure:
as §2, §3
The molecule B1 registered an OD450 of 0.05 OD450.
B2 had an OD450 of 0.07 OD450.
Same read-out and setting: the same measure for B3: 0.25 OD450.

The target is the same in the next test. In words: ELISA, coated monkey CD22 protein, antibody 0.00001 nM. On the procedure:
as §2, §3
Molecule B1 displayed an OD450 of 0.06 OD450.
B2: the OD450 was 0.05 OD450.
On to B3, for which the OD450 is 0.07 OD450.

The target is the same in another test. The test is described as follows: ELISA, coated monkey CD22 protein, antibody 100 nM. On the procedure: as §2, §3
Take B1: the OD450 was found to be 0.2 OD450.
On the same count and under the same terms, in the case of B2 it was 1.37 OD450.
Same read-out and setting: in the case of B3 it was 2.42 OD450.

A further test concerns the target T2, CD22 on cynomolgus monkey peripheral …. In words: FACS, cynomolgus PBMC, CD20+ B cells, antibody 10 nM.
Source text: as §1
As to B1, the “Proportion … (%)” value stood at 18%.
The same measure, in the same setting: in the case of B2 it was 16%; in that of B3, 20%.

Another test addresses T1, monkey CD22 protein (ACROBiosystems, …). The test is described as follows: ELISA, coated monkey CD22 protein, antibody 10 nM. On the procedure: as §2, §3
As to B1, the OD450 was determined as 0.08 OD450.
Still for that read-out and setting: in the case of B2 it was 1.03 OD450.
Still for that read-out and setting: in the case of B3 it was 1.65 OD450.
